B1: MAb 3H7A9 (antibody, V domains shown)
VH: EVQLQQSGAELVKPGASVKLSCTASGFNIKDTYMHWVKQRPEQGLEWIGRIDPANGNTQYGPKFQGKATITADTSSNTAYLQLSSLTSEDTAVYYCARGGIFYYYGSSYSYAMDYWGQGTSVTVSS
VL: DIQMTQTTSSLSASLGDRVTISCRASQDISNYLNWYQQKPDGTVTLLIYYTSRLHSGVPSRFSGSGSGTDYSLTISNLEQEDIATYFCQQGNTLPRTFGGGTKLEIK
B2: MAb 6D4B10 (antibody, V domains shown)
VH: EVQLQQSGPELVKPGASVKMSCKASGYTFTSYVMHWVKQKPGQGLEWIGYLNPYNDDTKYNEKFKGKATLTSDKSSSTAYMELSSLTSEDSAVYYCAYGPPYALDYWGQGTSVTVSS
VL: QIVLTQSPAIMTASLGERVTMTCTASSSVSSSYLHWYQQKPGSSPKLWIYSTSNLASGVPARFSGSGSGTSYSLTISSMEAEDAATYYCHQYHRSPYTFGGGTKLEIK
notes: also called biotinylated 6D4B10
B3: MAb 8A6F2 (antibody, V domains shown)
VH: DVQLQESGPDLVKPSQSLSLTCTVTGYSITSGYNWHWIRQFPGNKLEWMGYIHYSGGTNYNPSLKSRISITRDTSKNQFFLQLNSVTTEDTATYYCARRTGTVPFAYWGQGTLVTVSA
VL: EIVLTQSPALMAASPGEKVTITCSVSSSISSSNLHWYQQKSETSPKPWIYGTSNLASGVPVRFSGSGSGTSYSLTISSMEAEDAATYYCQQWSSYPLTFGGGTKLEIK
notes: also called biotinylated 8A6F2; 86FA2

Columns and labels:
[1] = target: SUMO*-DENV-4 NS1 fusion protein (not stated | dengue virus 4 (DENV-4), strain H421) (UniProt Q58HT7); assay: SDS-PAGE
[2] = target: T1, SUMO*-DENV-4 NS1 fusion protein (Dengue virus 4 strain H241 (printed …, UniProt Q58HT7)); assay: ELISA; conditions: one partner purified
T1 construct: also called SUMO*-DENV-4 rNS1 fusion protein; SUMO*-NS1 fusion protein

[3] = target: T2, recombinant DENV-4 non-structural protein 1 (unfused commercial DENV-4 rNS1) (Dengue virus 4, strain  …, UniProt P09866); assay: western blot; conditions: one partner purified
[4] = target: T2, recombinant DENV-4 non-structural …; assay: ELISA; conditions: one partner purified

T1 sequence (Q58HT7 whole entry, the tested form may be a part): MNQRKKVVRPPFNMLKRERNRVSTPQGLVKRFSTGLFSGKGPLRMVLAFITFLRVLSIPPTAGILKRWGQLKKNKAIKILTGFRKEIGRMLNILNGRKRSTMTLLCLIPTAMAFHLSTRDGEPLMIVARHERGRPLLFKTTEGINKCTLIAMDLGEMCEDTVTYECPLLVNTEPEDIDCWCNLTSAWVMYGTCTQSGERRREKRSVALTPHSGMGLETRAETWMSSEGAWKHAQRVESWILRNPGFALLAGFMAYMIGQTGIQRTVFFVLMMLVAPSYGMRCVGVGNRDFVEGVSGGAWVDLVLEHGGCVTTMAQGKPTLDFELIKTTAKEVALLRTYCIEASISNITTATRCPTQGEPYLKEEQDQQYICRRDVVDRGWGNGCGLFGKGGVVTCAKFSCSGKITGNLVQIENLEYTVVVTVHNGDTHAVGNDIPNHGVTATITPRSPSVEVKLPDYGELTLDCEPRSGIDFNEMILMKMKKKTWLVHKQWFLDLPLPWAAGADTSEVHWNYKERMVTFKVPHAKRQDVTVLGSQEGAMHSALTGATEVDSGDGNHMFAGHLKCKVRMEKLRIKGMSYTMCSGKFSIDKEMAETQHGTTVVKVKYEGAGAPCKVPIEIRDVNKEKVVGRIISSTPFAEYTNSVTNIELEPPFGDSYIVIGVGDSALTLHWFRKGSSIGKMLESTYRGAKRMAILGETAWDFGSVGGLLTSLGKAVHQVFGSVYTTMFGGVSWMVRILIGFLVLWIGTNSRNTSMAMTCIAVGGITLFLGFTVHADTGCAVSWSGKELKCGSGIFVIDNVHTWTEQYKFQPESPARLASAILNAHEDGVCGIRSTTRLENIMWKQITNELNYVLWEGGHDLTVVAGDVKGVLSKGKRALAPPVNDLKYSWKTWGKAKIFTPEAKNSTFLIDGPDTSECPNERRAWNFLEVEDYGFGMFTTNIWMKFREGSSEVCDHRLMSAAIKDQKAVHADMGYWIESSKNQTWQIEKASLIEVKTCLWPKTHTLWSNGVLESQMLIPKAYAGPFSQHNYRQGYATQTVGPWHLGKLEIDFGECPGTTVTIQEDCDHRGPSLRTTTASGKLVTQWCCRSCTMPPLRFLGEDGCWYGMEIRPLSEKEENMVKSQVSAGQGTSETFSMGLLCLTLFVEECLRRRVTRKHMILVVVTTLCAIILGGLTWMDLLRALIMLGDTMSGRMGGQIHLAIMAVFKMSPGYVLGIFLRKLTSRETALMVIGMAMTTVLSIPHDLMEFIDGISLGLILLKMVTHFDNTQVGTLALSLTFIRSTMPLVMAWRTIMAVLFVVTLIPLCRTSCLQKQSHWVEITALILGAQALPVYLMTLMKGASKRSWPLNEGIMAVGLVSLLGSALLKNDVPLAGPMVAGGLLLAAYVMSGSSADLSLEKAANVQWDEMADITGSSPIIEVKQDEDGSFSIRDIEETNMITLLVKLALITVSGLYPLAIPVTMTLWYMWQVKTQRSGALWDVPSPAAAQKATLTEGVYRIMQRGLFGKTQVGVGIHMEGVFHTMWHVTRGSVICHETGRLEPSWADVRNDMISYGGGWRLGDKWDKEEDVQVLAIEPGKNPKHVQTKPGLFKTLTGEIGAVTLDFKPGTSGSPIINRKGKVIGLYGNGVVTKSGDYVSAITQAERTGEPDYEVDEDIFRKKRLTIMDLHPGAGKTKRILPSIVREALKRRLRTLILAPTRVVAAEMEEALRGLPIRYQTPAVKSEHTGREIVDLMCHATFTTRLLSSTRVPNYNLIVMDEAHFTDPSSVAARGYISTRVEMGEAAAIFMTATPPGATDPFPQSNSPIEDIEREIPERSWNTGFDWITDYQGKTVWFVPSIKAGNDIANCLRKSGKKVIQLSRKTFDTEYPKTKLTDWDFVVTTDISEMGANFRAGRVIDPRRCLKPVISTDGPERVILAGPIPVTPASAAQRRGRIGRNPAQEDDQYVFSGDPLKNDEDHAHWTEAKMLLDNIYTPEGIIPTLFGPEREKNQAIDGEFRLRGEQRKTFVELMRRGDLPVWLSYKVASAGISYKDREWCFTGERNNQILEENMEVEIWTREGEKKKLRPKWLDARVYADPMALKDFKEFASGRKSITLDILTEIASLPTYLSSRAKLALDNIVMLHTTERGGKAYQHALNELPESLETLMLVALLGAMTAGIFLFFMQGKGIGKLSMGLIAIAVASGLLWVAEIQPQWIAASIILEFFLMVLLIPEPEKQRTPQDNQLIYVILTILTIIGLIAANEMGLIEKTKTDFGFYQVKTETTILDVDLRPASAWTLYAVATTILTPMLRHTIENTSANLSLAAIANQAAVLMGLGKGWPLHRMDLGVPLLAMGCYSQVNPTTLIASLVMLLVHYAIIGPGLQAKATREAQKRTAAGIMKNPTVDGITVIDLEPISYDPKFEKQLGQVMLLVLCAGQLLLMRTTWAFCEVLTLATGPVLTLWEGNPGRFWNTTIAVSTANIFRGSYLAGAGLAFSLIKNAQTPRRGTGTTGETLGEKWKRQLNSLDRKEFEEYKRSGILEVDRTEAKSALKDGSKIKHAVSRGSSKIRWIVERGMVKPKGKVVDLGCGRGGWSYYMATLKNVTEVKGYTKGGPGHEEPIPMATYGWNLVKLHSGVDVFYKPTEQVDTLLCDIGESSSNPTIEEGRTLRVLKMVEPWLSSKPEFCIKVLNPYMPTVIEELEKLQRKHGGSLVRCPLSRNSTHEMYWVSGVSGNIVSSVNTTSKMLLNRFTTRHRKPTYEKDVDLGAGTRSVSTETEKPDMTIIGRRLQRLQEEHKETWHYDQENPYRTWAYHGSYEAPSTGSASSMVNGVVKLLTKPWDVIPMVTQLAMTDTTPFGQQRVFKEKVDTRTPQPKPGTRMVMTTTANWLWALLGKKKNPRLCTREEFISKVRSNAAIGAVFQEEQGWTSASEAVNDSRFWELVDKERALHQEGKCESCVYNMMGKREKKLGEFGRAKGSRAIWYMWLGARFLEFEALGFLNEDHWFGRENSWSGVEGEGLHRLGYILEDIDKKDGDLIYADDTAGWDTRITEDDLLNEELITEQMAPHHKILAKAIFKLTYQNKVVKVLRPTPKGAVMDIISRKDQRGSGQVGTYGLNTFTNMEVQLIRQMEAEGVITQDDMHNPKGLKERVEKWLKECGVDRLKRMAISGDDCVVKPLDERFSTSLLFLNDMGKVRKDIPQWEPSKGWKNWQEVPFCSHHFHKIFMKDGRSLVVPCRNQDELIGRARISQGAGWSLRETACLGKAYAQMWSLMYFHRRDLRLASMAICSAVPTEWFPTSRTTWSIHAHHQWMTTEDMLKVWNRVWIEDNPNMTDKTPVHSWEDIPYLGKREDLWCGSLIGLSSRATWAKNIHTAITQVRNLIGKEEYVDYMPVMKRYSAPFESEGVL

Row | Molecule | stoichiometry N [1] | binding result [2] | binding result [3] | binding result [4]
1 | SUMO*-DENV-4 NS1 fusion protein (from UniProt Q58HT7 775-1126) | 2 |  |  | 
2 | B1 |  | binds | binds | 
3 | B2 |  | binds |  | binds
4 | B3 |  | binds |  | 
